Consider three substances from patent US20130089516A1.

Test [1] concerns the target IL-2 portion of the mouse IL-2/IL-2Rα fusion proteins (mouse) (UniProt P04351). Briefly: cell-based or functional assay.
Test [2] addresses recombinant human IL-2 (Peprotech) (human) (UniProt P60568). Briefly: modified phage ELISA, human IL-2 coated; 2 µg/ml MQ1-17H12 added, then scFv-2 phage (competitor).
Test [3] concerns the target mouse IL-2/IL-2Rα fusion proteins (2× and 4× linker lengths). Briefly: sandwich ELISA (JES6-1A12 capture, JES5H4 detection by the general methods), PSA-treated against buffer-treated fusion protein.

Values joined by “and” are separate entries in the source; they are usually repeats but may differ in a detail not shown here. Equal values may be shown once. A value given as a limit tells only on which side of the number the result lay.

IL-2 portion of the mouse IL-2/IL-2Rα fusion proteins (mouse), sequence (P04351 21-169 limits assumed): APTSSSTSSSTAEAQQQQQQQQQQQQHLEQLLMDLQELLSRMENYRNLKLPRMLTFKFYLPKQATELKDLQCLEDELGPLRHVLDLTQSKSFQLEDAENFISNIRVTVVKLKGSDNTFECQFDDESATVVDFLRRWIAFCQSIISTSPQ
recombinant human IL-2 (Peprotech) (human), sequence (P60568 21-153 limits assumed): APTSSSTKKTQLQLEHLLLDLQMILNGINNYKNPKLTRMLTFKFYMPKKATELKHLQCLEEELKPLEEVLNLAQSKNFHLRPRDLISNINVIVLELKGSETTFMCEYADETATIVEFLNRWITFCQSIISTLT

In the case of “IL-2Rα portion of the mouse IL-2/IL-2Rα fusion proteins (soluble form of the alpha chain of the IL-2 receptor) (from UniProt P01590 22-236)”, in test [1], the attenuation of IL-2 biologic activity in the intact uncleaved fusion protein against the equivalent amount of free IL-2, CTLL-2 bioassay was over 60 fold; the increase of biologically active IL-2 after PSA cleavage of the fusion protein with the 2× linker, CTLL-2 / MTT assay amounted to 3.5 fold; the increase of biologically active IL-2 after PSA cleavage of the fusion protein with the 4× linker, CTLL-2 / MTT assay was 9 fold.
With “neutralizing anti-human IL-2 monoclonal antibody MQ1-17H12 (eBioscience)”, in test [2], the percent blocking of scFv-2 phage binding came out at 70%.
As to “rat anti-mouse IL-2 monoclonal antibody JES6-1A12 (BD Pharmingen)”, in test [3], the fold increase in the apparent amount of IL-2 detected after PSA cleavage was 2 fold and 4 fold.
